Measurements published in paper PMC8238520 (2021).
Where no end group is shown, it is not given here. [ ]: non-standard residue; d: D form. pS = N[C@@H](COP(=O)(O)O)C(=O)O

B1: FAM-tagged PKCε pSer346/pSer368 phosphopeptide (peptide)
chain: DRSK[pS]APTSPCDQEIKELENNIRKAL[pS]FDNR
modifications: also: FAM label (end not given here)
B2: 14-3-3ζ dimer (natural protein)
chain: MDKNELVQKAKLAEQAERYDDMAACMKSVTEQGAELSNEERNLLSVAYKNVVGARRSSWRVVSSIEQKTEGAEKKQQMAREYREKIETELRDICNDVLSLLEKFLIPNASQAESKVFYLKMKGDYYRYLAEVAAGDDKKGIVDQSQQAYQEAFEISKKEMQPTHPIRLGLALNFSVFYYEILNSPEKACSLAKTAFDEAIAELDTLSEESYKDSTLIMQLLRDNLTLWTSDTQGDEAEAGEGGEN
B3: FAM-tagged PKCε pSer346/pSer350/pSer368 phosphopeptide (peptide)
chain: DRSK[pS]APT[pS]PCDQEIKELENNIRKAL[pS]FDNR
modifications: also: FAM label (end not given here)

Key:
Assay in all cases: FP
14-3-3ζ dimer = molecular target: B2
[1] = molecular target: FAM-tagged PKCε pSer346/pSer350 phosphopeptide (UniProt P16054, phosphoserine at 346; phosphoserine at 350; FAM label (end not stated))
[2] = molecular target: FAM-tagged PKCε pSer346 phosphopeptide (UniProt P16054, phosphoserine at 346; FAM label (end not stated))

Binder	Kd (14-3-3ζ dimer)	Kd [1]	Kd [2]
B1	0.03 µM	–	–
B2	–	335 µM	31.5 µM
B3	0.147 µM	–	–
